The results in this text go back to the supplement of paper PMC11246515.

The nature of this series: total protein half-life in vivo (active degradation + dilution); higher = more stable protein.
[1] abbreviates: E. coli NCM3722 delta-clpP delta-lon delta-hslV, growth: N-lim chemostat, doubling time 6 h.
The mark [2] stands for this setting: E. coli NCM3722 delta-clpP, growth: N-lim chemostat, doubling time 6 h.
[3] abbreviates: E. coli NCM3722 delta-hslV, growth: N-lim chemostat, doubling time 6 h.
Where [4] appears, read: E. coli NCM3722 delta-lon, growth: N-lim chemostat, doubling time 6 h.
[5] abbreviates: E. coli NCM3722 delta-smpB, growth: N-lim chemostat, doubling time 6 h.
Where [6] appears, read: wild type E. coli NCM3722, growth: C-lim chemostat, doubling time 3 h.
[7] abbreviates: wild type E. coli NCM3722, growth: C-lim chemostat, doubling time 6 h.
The mark [8] stands for this setting: wild type E. coli NCM3722, growth: C-lim chemostat, doubling time 12 h.
[9] abbreviates: wild type E. coli NCM3722, growth: N-lim chemostat, doubling time 6 h.
Where [10] appears, read: wild type E. coli NCM3722, growth: N-lim chemostat, doubling time 12 h.
Setting [11] is: wild type E. coli NCM3722, growth: P-lim chemostat, doubling time 6 h.
[12] abbreviates: wild type E. coli NCM3722, growth: P-lim chemostat, doubling time 12 h.

± gives the standard deviation of the averaged measurements.

In the case of “MISLFDMFKVGIGPSSSHTVGPMKAGKQFVDDLVEKGLLDSVTRVAVDVYGSLSLTGKGHHTDIAIIMGLAGNEPATVDIDSIPGFIRDVEERERLLLAQGRHEVDFPRDNGMRFHNGNLPLHENGMQIHAYNGDEVVYSKTYYSIGGGFIVDEEHFGQDAANEVSVPYPFKSATELLAYCNETGYSLSGLAMQNELALHSKKEIDEYFAHVWQTMQACIDRGMNTEGVLPGPLRVPRRASALRRMLVSSDKLSNDPMNVIDWVNMFALAVNEENAAGGRVVTAPTNGACGIVPAVLAYYDHFIESVSPDIYTRYFMAAGAIGALYKMNASISGAEVGCQGEVGVACSMAAAGLAELLGGSPEQVCVAAEIGMEHNLGLTCDPVAGQVQVPCIERNAIASVKAINAARMALRRTSAPRVSLDKVIETMYETGKDMNAKYRETSRGGLAIKVQCD”, the “total protein half-life in vivo” value is, setting by setting: under setting [1], 3.76 ± 0.4 h; under setting [2], 3.54 ± 0.37 h; under setting [3], 1.9 ± 0.28 h; under setting [4], 2.48 ± 0.38 h; under setting [5], 1.78 ± 0.14 h; under setting [6], 1.52 ± 0.084 h. Also, the “total protein half-life in vivo” value runs as follows: under setting [7], 2.267 ± 0.0096 h; under setting [8], 3.25 ± 0.43 h; under setting [9], 2.08 ± 0.26 h; under setting [10], 2.57 ± 0.32 h; under setting [11], 3.4 ± 0.63 h; under setting [12], 7.67 ± 0.65 h.
As to “MKQTVYIASPESQQIHVWNLNHEGALTLTQVVDVPGQVQPMVVSPDKRYLYVGVRPEFRVLAYRIAPDDGALTFAAESALPGSPTHISTDHQGQFVFVGSYNAGNVSVTRLEDGLPVGVVDVVEGLDGCHSANISPDNRTLWVPALKQDRICLFTVSDDGHLVAQDPAEVTTVEGAGPRHMVFHPNEQYAYCVNELNSSVDVWELKDPHGNIECVQTLDMMPENFSDTRWAADIHITPDGRHLYACDRTASLITVFSVSEDGSVLSKEGFQPTETQPRGFNVDHSGKYLIAAGQKSHHISVYEIVGEQGLLHEKGRYAVGQGPMWVVVNAH”, the “total protein half-life in vivo” value turned out to be 4.59 ± 0.99 h under setting [2]; 4.79 ± 0.47 h under setting [3]; 6.52 ± 0.2 h under setting [4]; 4.87 ± 0.15 h under setting [5]; 3.17 ± 0.23 h under setting [6]; 11.1 ± 2 h under setting [8]. Moreover, the “total protein half-life in vivo” value under setting [9] was 4.95 ± 0.27 h, the “total protein half-life in vivo” value under setting [10] was determined as 9.37 ± 2.2 h and the “total protein half-life in vivo” value under setting [11] turned out to be 6.2 ± 2.5 h.
For the sequence “MSKQSQHVLIALPHPLLHLVSLGLVSFIFTLFSLELSQFGTQLAPLWFPTSIMMVAFYRHAGRMWPGIALSCSLGNIAASILLFSTSSLNMTWTTINIVEAVVGAVLLRKLLPWYNPLQNLADWLRLALGSAIVPPLLGGVLVVLLTPGDDPLRAFLIWVLSESIGALALVPLGLLFKPHYLLRHRNPRLLFESLLTLAITLTLSWLSMLYLPWPFTFIIVLLMWSAVRLPRMEAFLIFLTTVMMVSLMMAADPSLLATPRTYLMSHMPWLPFLLILLPANIMTMVMYAFRAERKHISESETHFRNAMEYSAIGMALVGTEGQWLQTNKALCQFLGYSQEELRGLTFQQLTWPEDLNKDLQQVEKLISGEINTYSMEKRYYNRNGDVVWALLAVSLVRHTDGTPLYFIAQIEDINELKRTEQVNQQLMERITLANEAGGIGIWEWELKPNIFSWDKRMFELYEIPPHIKPNWQVWYECVLPEDRQHAEKVIRDSLQSRSPFKLEFRITVKDGIRHIRALANRVLNKEGEVERLLGINMDMTEVKQLNEALFQEKERLHITLDSIGEAVVCIDMAMKITFMNPVAEKMSGWTQEEALGVPLLTVLHITFGDNGPLMENIYSADTSRSAIEQDVVLHCRSGGSYDVHYSITPLSTLDGSNIGSVLVIQDVTESRKMLRQLSYSASHDALTHLANRASFEKQLRILLQTVNSTHQRHALVFIDLDRFKAVNDSAGHAAGDALLRELASLMLSMLRSSDVLARLGGDEFGLLLPDCNVESARFIATRIISAVNDYHFIWEGRVHRVGASAGITLIDDNNHQAAEVMSQADIACYASKNGGRGRVTVYEPQQAAAHSERAAMSLDEQWRMIKENQLMMLAHGVASPRIPEARNLWLISLKLWSCEGEIIDEQTFRRSFSDPALSHALDRRVFHEFFQQAAKAVASKGISISLPLSVAGLSSATLVNDLLEQLENSPLPPRLLHLIIPAEAILDHAESVQKLRLAGCRIVLSQVGRDLQIFNSLKANMADYLLLDGELCANVQGNLMDEMLITIIQGHAQRLGMKTIAGPVVLPLVMDTLSGIGVDLIYGEVIADAQPLDLLVNSSYFAIN”, the “total protein half-life in vivo” value reads like this: under setting [1], 4.93 ± 0.2 h; under setting [8], 9.36 h; under setting [11], 1.53 h.
For the sequence “MKQDLARIEQFLDALWLEKNLAENTLNAYRRDLSMMVEWLHHRGLTLATAQSDDLQALLAERLEGGYKATSSARLLSAVRRLFQYLYREKFREDDPSAHLASPKLPQRLPKDLSEAQVERLLQAPLIDQPLELRDKAMLEVLYATGLRVSELVGLTMSDISLRQGVVRVIGKGNKERLVPLGEEAVYWLETYLEHGRPWLLNGVSIDVLFPSQRAQQMTRQTFWHRIKHYAVLAGIDSEKLSPHVLRHAFATHLLNHGADLRVVQMLLGHSDLSTTQIYTHVATERLRQLHQQHHPRA [P0A8P8]”, the “total protein half-life in vivo” value under setting [1] is 5.75 ± 1.2 h; the “total protein half-life in vivo” value under setting [2] came out at 2.02 ± 0.045 h; the “total protein half-life in vivo” value under setting [3] came to 2.06 h; the “total protein half-life in vivo” value under setting [4] worked out at 4.89 ± 0.092 h; the “total protein half-life in vivo” value under setting [5] was 2.04 ± 0.034 h; the “total protein half-life in vivo” value under setting [6] is 1.74 ± 0.27 h. Further, the “total protein half-life in vivo” value is 3.04 ± 0.085 h under setting [7]; 4.08 ± 0.66 h under setting [8]; 2.31 ± 0.2 h under setting [9]; 3.34 ± 0.29 h under setting [10]; 2.81 h under setting [12].
With “MTPHVMKRDGCKVPFKSERIKEAILRAAKAAEVDDADYCATVAAVVSEQMQGRNQVDINEIQTAVENQLMSGPYKQLARAYIEYRHDRDIEREKRGRLNQEIRGLVEQTNASLLNENANKDSKVIPTQRDLLAGIVAKHYARQHLLPRDVVQAHERGDIHYHDLDYSPFFPMFNCMLIDLKGMLTQGFKMGNAEIEPPKSISTATAVTAQIIAQVASHIYGGTTINRIDEVLAPFVTASYNKHRKTAEEWNIPDAEGYANSRTIKECYDAFQSLEYEVNTLHTANGQTPFVTFGFGLGTSWESRLIQESILRNRIAGLGKNRKTAVFPKLVFAIRDGLNHKKGDPNYDIKQLALECASKRMYPDILNYDQVVKVTGSFKTPMGCRSFLGVWENENGEQIHDGRNNLGVISLNLPRIALEAKGDEATFWKLLDERLVLARKALMTRIARLEGVKARVAPILYMEGACGVRLNADDDVSEIFKNGRASISLGYIGIHETINALFGGEHVYDNEQLRAKGIAIVERLRQAVDQWKEETGYGFSLYSTPSENLCDRFCRLDTAEFGVVPGVTDKGYYTNSFHLDVEKKVNPYDKIDFEAPYPPLANGGFICYGEYPNIQHNLKALEDVWDYSYQHVPYYGTNTPIDECYECGFTGEFECTSKGFTCPKCGNHDASRVSVTRRVCGYLGSPDARPFNAGKQEEVKRRVKHLGNGQIG”, the “total protein half-life in vivo” value under setting [1] was 2.17 ± 0.33 h; the “total protein half-life in vivo” value under setting [2] turned out to be 1.045 ± 0.0046 h; the “total protein half-life in vivo” value under setting [3] amounted to 0.844 ± 0.15 h; the “total protein half-life in vivo” value under setting [4] is 1.02 ± 0.11 h; the “total protein half-life in vivo” value under setting [5] came to 0.762 ± 0.051 h; the “total protein half-life in vivo” value under setting [6] stood at 2.63 ± 0.5 h. For the same sequence, the “total protein half-life in vivo” value under setting [7] was 2 ± 0.24 h; the “total protein half-life in vivo” value under setting [8] worked out at 2.72 ± 0.57 h; the “total protein half-life in vivo” value under setting [9] came out at 1.67 ± 0.91 h; the “total protein half-life in vivo” value under setting [10] was found to be 1.49 ± 0.42 h; the “total protein half-life in vivo” value under setting [11] worked out at 2.99 ± 0.31 h; the “total protein half-life in vivo” value under setting [12] was determined as 4.91 ± 0.075 h.
As for “MATLTTTQTSPSLLGGVVIIGGTIIGAGMFSLPVVMSGAWFFWSMAALIFTWFCMLHSGLMILEANLNYRIGSSFDTITKDLLGKGWNVVNGISIAFVLYILTYAYISASGSILHHTFAEMSLNVPARAAGFGFALLVAFVVWLSTKAVSRMTAIVLGAKVITFFLTFGSLLGHVQPATLFNVAESNASYAPYLLMTLPFCLASFGYHGNVPSLMKYYGKDPKTIVKCLVYGTLMALALYTIWLLATMGNIPRPEFIGIAEKGGNIDVLVQALSGVLNSRSLDLLLVVFSNFAVASSFLGVTLGLFDYLADLFGFDDSAVGRLKTALLTFAPPVVGGLLFPNGFLYAIGYAGLAATIWAAIVPALLARASRKRFGSPKFRVWGGKPMIALILVFGVGNALVHILSSFNLLPVYQ [P0AAD2]”, the “total protein half-life in vivo” value under setting [1] is 2.1 h, the “total protein half-life in vivo” value under setting [3] was 0.779 h, the “total protein half-life in vivo” value under setting [5] came to 0.897 h and the “total protein half-life in vivo” value under setting [6] is 1.97 ± 0.16 h.
